{"source": "paper PMC9063846", "about": "“The structure of Phocaeicola vulgatus sialic acid acetylesterase” (Acta Crystallographica. Section D, Structural Biology, 2022)", "proteins": {"B1": {"name": "PvSAE (Phocaeicola vulgatus ATCC 8482) (protein)", "chain": "ERKYSTFYEQRATLFEELPVTSKDIIFLGNSITNGCEWAELFQNKNVKNRGISGDICMGVYDRLDPIVKGKPAKIFLLIGINDVSRGTSADKIISEISMIVRKIKQESPKTKLYLQSVLPVNDCYGMFNGHTSRWQVVKQINDLLEPLAVKEGVAYIDLYSHFVEKETGKMNPVYTNDGLHLLGKGYLLWRDIVKPYVDQK", "notes": "signal peptide removed (predicted cleavage 19/20); E. coli BL21(DE3) Gold"}}, "substrate": "CC(=O)Oc1ccc([N+](=O)[O-])cc1", "experiment": "purified protein", "format": "biochemical, Phocaeicola vulgatus", "details": "10 nM enzyme, 100 mM phosphate-citrate buffer pH 7.0, 25 °C, 1% DMSO"}
{"protein": "B1", "values": [{"measurement": "Km", "result": "80 ± 6", "unit": "µM"}, {"measurement": "kcat", "result": "75 ± 1", "unit": "s⁻¹"}, {"measurement": "kcat/Km", "result": "930000 ± 70000", "unit": "M⁻¹ s⁻¹"}]}
